Measurements taken from paper PMC4514859.

Tested on: MtlR (Pseudomonas fluorescens DSM 50106)
Assay: EMSA
Details: 1x shift buffer A: 10 mM Tris-HCl pH 7.0, 5% glycerol, 1 mM TCEP, 50 ug/ml salmon sperm DNA, 4% TEG, 2 mM D-mannitol (absent in buffer B), 30 min on ice, gel …

Substance: PCR 210 (wild-type PmtlE operator)
- Kd (with D-mannitol, kdiss 1.1e-4 s-1, t1/2 112 min): 30.8 nM
- Kd (without mannitol, kdiss 1.2e-4 s-1, t1/2 99 min): 32.6 nM
